Reference: patent US20160115222A1 (published 2016)

Legend:
[1] = molecular target: T1, Sbi-E (amino acids 28-266) (Staphylococcus aureus, UniProt Q2FVK5 28-266); experiment: double immunodiffusion in agarose gel
T1 construct: range 28-266

[2] = molecular target: T2, Recombinant SpA (Biovision), recombinant 4-domain SpA (Staphylococcus aureus, UniProt P38507 37-269); experiment: double immunodiffusion in agarose gel
T2 construct: domain: SpA IgBP domains 1-4; also called SpA 1-4; SpA1-4

[3] = molecular target: T3, rProtein A (HiTrap rProtein A FF column) (Staphylococcus aureus, UniProt P38507 37-327); experiment: affinity chromatography
T3 construct: also called SpA

[4] = molecular target: T4, SpA on S. aureus Newman strain cells (Staphylococcus aureus (Newman strain), UniProt A0A0H3K686 37-477); experiment: whole cell ELISA
T4 construct: also called wild type S. aureus Newman

B1: Anti-RSV variant antibody MAB5 (antibody, human IgG1, kappa, V domains shown)
VH: QVTLRESGPALVKPTQTLTLTCTFSGFSLSTAGMSVGWIRQPPGKALEWLADIWWDDKKHYNPSLKDRLTISKDTSKNQVVLKVTNMDPADTATYYCARDMIFNFYFDVWGQGTTVTVSS
VL: DIQMTQSPSTLSASVGDRVTITCSASSRVGYMHWYQQKPGKAPKLLIYDTSKLASGVPSRFSGSGSGTEFTLTISSLQPDDFATYYCFQGSGYPFTFGGGTKLEIKR
notes: also called anti-RSV heavy chain constant region variant; control anti-RSV variant antibody
binding result [1]: no binding (tested: 1 mg/ml (from paragraph 493, not on the sheet)) | binding result [2]: no binding (tested: 1 mg/ml (from paragraph 493, not on the sheet)) | binding result [3]: no binding | binding result [4]: no binding
